Laboratory results: patent publication US20040071694A1 (published 2004)
Positions count from the first letter of the chain named.

Assays:
[1] = biological target: T1, biotinylated EpoR (Abbott CHO cell derived ref.# RB69084:4) (UniProt P19235 25-250, limits assumed, biotinylated with biotin-NHS (sites not given)); assay: ELISA, HEK 293 supernatant titrated 1:2 on biotin-EpoR captured on streptavidin plates
T1 construct: also called biotin EpoR; biotin-EpoR
T1 sequence (looked up): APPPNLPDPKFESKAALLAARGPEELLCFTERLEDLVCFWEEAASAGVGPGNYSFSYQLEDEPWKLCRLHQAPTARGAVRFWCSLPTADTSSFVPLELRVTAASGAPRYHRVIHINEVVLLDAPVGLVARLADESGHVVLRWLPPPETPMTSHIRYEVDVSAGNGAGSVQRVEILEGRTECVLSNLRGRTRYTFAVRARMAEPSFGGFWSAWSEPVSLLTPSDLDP

peptide SE-3 = biological target: T2, peptide SE-3 (human); assay: ELISA on plate-coated peptide SE-3
T2 construct: also called SE-3 peptide
T2 peptide: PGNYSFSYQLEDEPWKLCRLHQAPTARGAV
Procedure: Plates were blocked for 30 minutes at room temperature with 100 ul of 5% BSA in PBS (Gibco (Invitrogen (Carlsbad, Calif.)) Cat.#10010). After removal of blocking solution, 50 ul of Ab12 at 5 ug/ml in PBS with 1% BSA was added to wells and plates were incubated at room temperature for 2 hours. Plates were washed three times using a Skatron 400 Plate Washer with PBS/0.05% Tween 20 and 50 ul of secondary antibody diluted in PBS/0.25% BSA/0.05% Tween 20 added to the wells. For Ab12, goat anti-human IgG (Fc)-HRP (Caltag (Burlingame, Calif.) Cat.#H10507) diluted 1:1000 was used and for Ab 71A (available from the American Type Culture Collection HB 11689, also described in U.S. Pat. No. 6,319,499), goat anti mouse IgG (Fc)-HRP (Jackson Laboratories (West Grove, Pa.) Cat.#115-035-164) diluted 1:5000 was used. After a 1 hour incubation at room temperature, plates were washed three times as before and 50 ul of OPD Developing Reagent (Sigma #P9187) added to each well. Color development was stopped by addition of 50 ul of 1N HCl to the wells and optical density measured at 490 nm on a Victor 1420 Multi-Label Counter.

[2] = biological target: T3, full length recombinant human EPO receptor (human, UniProt P19235 25-508); assay: cell-based or functional assay
T3 sequence: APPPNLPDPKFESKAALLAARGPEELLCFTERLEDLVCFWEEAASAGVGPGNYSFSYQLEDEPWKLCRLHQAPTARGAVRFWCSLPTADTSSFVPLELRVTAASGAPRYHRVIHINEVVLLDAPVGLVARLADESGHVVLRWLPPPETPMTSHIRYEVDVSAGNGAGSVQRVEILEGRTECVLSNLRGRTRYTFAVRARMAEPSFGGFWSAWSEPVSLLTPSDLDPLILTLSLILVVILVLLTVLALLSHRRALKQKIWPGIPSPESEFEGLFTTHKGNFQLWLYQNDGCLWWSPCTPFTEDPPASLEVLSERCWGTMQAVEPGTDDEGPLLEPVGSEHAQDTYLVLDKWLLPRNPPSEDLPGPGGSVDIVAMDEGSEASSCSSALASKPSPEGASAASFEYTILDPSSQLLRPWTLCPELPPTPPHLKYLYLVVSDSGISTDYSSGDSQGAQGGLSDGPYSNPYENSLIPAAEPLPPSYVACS

[3] = biological target: T4, soluble human EPO receptor (human, UniProt P19235 25-250); assay: SPR (Biacore 2000), antibody immobilized on chip, soluble receptor 10-200 nM injected
T4 construct: extracellular domain; Printed only as 'soluble human EPO receptor'
T4 sequence (looked up): T1 sequence (looked up)
Procedure: Immobilizations of antibody were performed using the default immobilization program in the Biacore software package. Antibodies were diluted to 10 ug/mL in the supplied acetate buffers to prescreen for the appropriate pH at which to conduct the immobilizations. For immobilizations, antibodies were diluted into the appropriate acetate buffer (10 mM acetate pH 4.0) and coupled directly to the chip surface using standard EDC chemistry at three different protein levels (500, 1000, and 1500 RU). The fourth flow cell was mock coupled with EDC to cap the carboxyl groups and provide a background surface as a negative control.
Binding studies were performed by successive injections of varying concentrations of soluble human EPO receptor over the chip surface (500 RU immobilized protein). […]
Data were fit to the models available in the BiaEvaluation 3.0.2 software package (Biacore). […] Dissociation constants were calculated directly from fitting to the Langmuir binding model. For the bivalent analyte model, the dissociation constants were calculated indirectly using the calculated values for the kinetic dissociation and kinetic association constants, kd and kₐ.

B1: ABT2-SCX-254 (antibody, V domains shown)
VH: QVQLVESGGGVVQPGRSLRLSCAASGFTFSSYGMHWVRQAPGKGLEWVAVIWFDGNNKFYADSVKGRFTISRDNSKNTLYLQMNSLRVEDTAVYYCARGGSYWDYWGQGTLVTVSS
VL: DIVMTQTPLFSFVMIGQPASISCRSRQSLVHSDGNTYLNWLQQRPGQPPRLLIYKTSNRFSGVPDRFSGSGAGTDFTLKISRVEAEDVGVYYCMQATQFPITFGQGTRLEIK
[1]
  Binding (dilution of supernatant): 8 dilution 1:n

B2: ABT2-SCX-054 (antibody, V domains shown)
VH: B1 VH with S31K, I51L, F53Y, N56S, F59Y, V88A, G100P, S101Y, W103F
VL: not shown
[1]
  Binding (dilution of supernatant): > 64 dilution 1:n

B3: Ab12 (antibody, human IgG2, V domains shown)
VH: QVQLQESGPGLVKPSETLSLTCTVSGASISSYYWSWIRQPPGKGLEWIGYIYYSGSTNYNPSLKSRVTISVDTSKNQFSLKLRSVTAADTAVYYCARERLGIGDYWGQGTLVTVSS
VL: DIQLTQSPSSLSASVGDRVTITCRASQGIRNDLGWYQQKPGKAPKRLIYAASSLQSGVPSRFSGSGSGTEFTLTISSLQPEDFATYYCLQHNTYPPTFGQGTKVEIK
notes: Human antibody from XenoMouse; also called ABT2-SCX-012; AB-ABT2-XG2-012
Peptide SE-3
  binding result: no binding (tested: 5 ug/ml)
[2]
  proliferation of F36E cells after storage of Ab12 at 4 C, compared with the EPO control: ~10 fold
[3]
  Kd: 17.5 nM

B4: ABT2-SCX-022 (antibody, V domains shown)
VH: QVQLVESGGGVVQPGRSLRLSCAASGFTFSSYGMHWVRQAPGKGLEWVVVISYDGSNKYYADSVKGRFTISRDNSKNTLYLQMNSLRVEDTAVYYCARDHGGRYVYDYGMDVWGQGTTVTVSS
VL: DIQMTQSPSSVSASVGDRVSITCRASQGISSWLAWYQQKPGKAPTLLIYAASSLQRGVPSRFSGSGSGTDFTLTISSLQPEDFATYFCQQANSFPFTFGPGTKVDIK
[1]
  Binding (dilution of supernatant): > 64 dilution 1:n

B5: ABT2-SCX-267 (antibody, V domains shown)
VH: B4 VH with V49A, R98K
VL: B4 VL with S30G, K42Q, S76N, I106V
[1]
  Binding (dilution of supernatant): > 64 dilution 1:n

B6: Ab198 (antibody, human IgG2, V domains shown)
VH: B4 VH with A23V, V49A
VL: B4 VL with V15I, S53T
notes: Human antibody from XenoMouse
Peptide SE-3
  binding result: no binding
[3]
  Kd: 13.9 nM
